Seven molecules from patent publication US20260001928A1 (CORTERIA PHARMACEUTICALS, priority 2022, published 2026) can be followed below.

For experiment [1], the target named is human corticotropin-releasing factor 2a (CRF2a receptor) (human), Q13324. As to the kind of experiment: cell-based or functional assay.
The next experiment has as its target T1, CRF1R receptor (UniProt P34998 24-415, limits assumed).
T1 sequence (looked up): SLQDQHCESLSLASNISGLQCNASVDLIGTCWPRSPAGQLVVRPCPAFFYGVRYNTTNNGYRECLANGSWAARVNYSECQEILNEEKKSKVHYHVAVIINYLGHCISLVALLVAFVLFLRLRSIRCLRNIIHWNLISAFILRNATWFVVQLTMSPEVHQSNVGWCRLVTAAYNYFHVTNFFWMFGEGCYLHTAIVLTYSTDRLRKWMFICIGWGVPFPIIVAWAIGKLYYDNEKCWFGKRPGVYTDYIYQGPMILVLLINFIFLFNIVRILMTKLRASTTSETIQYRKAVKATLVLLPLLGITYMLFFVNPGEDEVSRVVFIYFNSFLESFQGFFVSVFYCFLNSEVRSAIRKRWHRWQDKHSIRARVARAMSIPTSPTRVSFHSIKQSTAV
The experiment in a line: cell-based or functional assay.

*1 amine or outer side, *2 acyl side, *3 side chain or, on linkers, in order; H or OH if unused. Primed or numbered codes have the meaning given here. Where no end group is shown, it is not given here. Side-chain parts run from the residue outwards. [ ]: non-standard residue; d: D form. The star is where a group is joined. Thp′ = 4-amino-tetrahydro-2H-pyran-4-yl-acetic acid, O=C(CC1(N[*:1])CCOCC1)[*:2]; C20 diacid = O=C(O)CCCCCCCCCCCCCCCCCCC(=O)*; C18 diacid = O=C(O)CCCCCCCCCCCCCCCCC(=O)*; C16 diacid = O=C(O)CCCCCCCCCCCCCCC(=O)*; γGlu = O=C(O)[C@H](CCC(=O)[*:2])N[*:1]; Thp″ = not defined here; Pentanoyl = CCCCC(=O)*; AEEA = NCCOCCOCC(=O)O; Aib = CC(C)(N)C(=O)O

Chain of human corticotropin-releasing factor 2a (CRF2a receptor) (human), Q13324 (Q13324 20-411): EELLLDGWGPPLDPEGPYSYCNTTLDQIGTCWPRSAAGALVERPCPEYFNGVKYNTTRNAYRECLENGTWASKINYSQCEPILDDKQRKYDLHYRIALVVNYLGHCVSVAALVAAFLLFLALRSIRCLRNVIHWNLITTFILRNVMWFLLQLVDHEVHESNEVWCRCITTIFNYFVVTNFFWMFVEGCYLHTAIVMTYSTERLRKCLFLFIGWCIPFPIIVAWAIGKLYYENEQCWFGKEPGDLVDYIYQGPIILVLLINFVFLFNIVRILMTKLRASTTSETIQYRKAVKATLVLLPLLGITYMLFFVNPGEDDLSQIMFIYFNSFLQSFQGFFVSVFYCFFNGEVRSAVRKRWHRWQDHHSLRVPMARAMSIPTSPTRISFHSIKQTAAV

B1: SEQ ID NO 150 (peptide)
peptide: H-IVLSLD[dV]PIKLK([AEEA-AEEA-γGlu-C18 diacid])QILLKQERQKKQREQAEKNKQILEQV-NH2
SMILES: CC[C@H](C)[C@H](N)C(=O)N[C@H](C(=O)N[C@@H](CC(C)C)C(=O)N[C@@H](CO)C(=O)N[C@@H](CC(C)C)C(=O)N[C@@H](CC(=O)O)C(=O)N[C@@H](C(=O)N1CCC[C@H]1C(=O)N[C@H](C(=O)N[C@@H](CCCCN)C(=O)N[C@@H](CC(C)C)C(=O)N[C@@H](CCCCNC(=O)COCCOCCNC(=O)COCCOCCNC(=O)CC[C@H](NC(=O)CCCCCCCCCCCCCCCCC(=O)O)C(=O)O)C(=O)N[C@@H](CCC(N)=O)C(=O)N[C@H](C(=O)N[C@@H](CC(C)C)C(=O)N[C@@H](CC(C)C)C(=O)N[C@@H](CCCCN)C(=O)N[C@@H](CCC(N)=O)C(=O)N[C@@H](CCC(=O)O)C(=O)N[C@@H](CCCNC(=N)N)C(=O)N[C@@H](CCC(N)=O)C(=O)N[C@@H](CCCCN)C(=O)N[C@@H](CCCCN)C(=O)N[C@@H](CCC(N)=O)C(=O)N[C@@H](CCCNC(=N)N)C(=O)N[C@@H](CCC(=O)O)C(=O)N[C@@H](CCC(N)=O)C(=O)N[C@@H](C)C(=O)N[C@@H](CCC(=O)O)C(=O)N[C@@H](CCCCN)C(=O)N[C@@H](CC(N)=O)C(=O)N[C@@H](CCCCN)C(=O)N[C@@H](CCC(N)=O)C(=O)N[C@H](C(=O)N[C@@H](CC(C)C)C(=O)N[C@@H](CCC(=O)O)C(=O)N[C@@H](CCC(N)=O)C(=O)N[C@H](C(N)=O)C(C)C)[C@@H](C)CC)[C@@H](C)CC)[C@@H](C)CC)C(C)C)C(C)C
B1 came in with an EC50 [nM] (cAMP) in experiment [1] of 0.25 nM.

B2: SEQ ID NO 228 (peptide)
peptide: Pentanoyl-VLSLD[dV]PIGLK([γGlu-C20 diacid])KILLEQEKQKKQREQAETN[Aib]QILAQV-NH2
SMILES: CCCCC(=O)N[C@H](C(=O)N[C@@H](CC(C)C)C(=O)N[C@@H](CO)C(=O)N[C@@H](CC(C)C)C(=O)N[C@@H](CC(=O)O)C(=O)N[C@@H](C(=O)N1CCC[C@H]1C(=O)N[C@H](C(=O)NCC(=O)N[C@@H](CC(C)C)C(=O)N[C@@H](CCCCNC(=O)CC[C@H](NC(=O)CCCCCCCCCCCCCCCCCCC(=O)O)C(=O)O)C(=O)N[C@@H](CCCCN)C(=O)N[C@H](C(=O)N[C@@H](CC(C)C)C(=O)N[C@@H](CC(C)C)C(=O)N[C@@H](CCC(=O)O)C(=O)N[C@@H](CCC(N)=O)C(=O)N[C@@H](CCC(=O)O)C(=O)N[C@@H](CCCCN)C(=O)N[C@@H](CCC(N)=O)C(=O)N[C@@H](CCCCN)C(=O)N[C@@H](CCCCN)C(=O)N[C@@H](CCC(N)=O)C(=O)N[C@@H](CCCNC(=N)N)C(=O)N[C@@H](CCC(=O)O)C(=O)N[C@@H](CCC(N)=O)C(=O)N[C@@H](C)C(=O)N[C@@H](CCC(=O)O)C(=O)N[C@H](C(=O)N[C@@H](CC(N)=O)C(=O)NC(C)(C)C(=O)N[C@@H](CCC(N)=O)C(=O)N[C@H](C(=O)N[C@@H](CC(C)C)C(=O)N[C@@H](C)C(=O)N[C@@H](CCC(N)=O)C(=O)N[C@H](C(N)=O)C(C)C)[C@@H](C)CC)[C@@H](C)O)[C@@H](C)CC)[C@@H](C)CC)C(C)C)C(C)C
On to B2, for which the EC50 [nM] (cAMP) in experiment [1] amounted to 0.19 nM.

B3: SEQ ID NO 13 (peptide)
peptide: H-IVLSLD[dV]PIKLK([γGlu-C16 diacid])QILLKQERQKKQREQAEKNVQILEQV-NH2
SMILES: CC[C@H](C)[C@H](N)C(=O)N[C@H](C(=O)N[C@@H](CC(C)C)C(=O)N[C@@H](CO)C(=O)N[C@@H](CC(C)C)C(=O)N[C@@H](CC(=O)O)C(=O)N[C@@H](C(=O)N1CCC[C@H]1C(=O)N[C@H](C(=O)N[C@@H](CCCCN)C(=O)N[C@@H](CC(C)C)C(=O)N[C@@H](CCCCNC(=O)CC[C@H](NC(=O)CCCCCCCCCCCCCCC(=O)O)C(=O)O)C(=O)N[C@@H](CCC(N)=O)C(=O)N[C@H](C(=O)N[C@@H](CC(C)C)C(=O)N[C@@H](CC(C)C)C(=O)N[C@@H](CCCCN)C(=O)N[C@@H](CCC(N)=O)C(=O)N[C@@H](CCC(=O)O)C(=O)N[C@@H](CCCNC(=N)N)C(=O)N[C@@H](CCC(N)=O)C(=O)N[C@@H](CCCCN)C(=O)N[C@@H](CCCCN)C(=O)N[C@@H](CCC(N)=O)C(=O)N[C@@H](CCCNC(=N)N)C(=O)N[C@@H](CCC(=O)O)C(=O)N[C@@H](CCC(N)=O)C(=O)N[C@@H](C)C(=O)N[C@@H](CCC(=O)O)C(=O)N[C@@H](CCCCN)C(=O)N[C@@H](CC(N)=O)C(=O)N[C@H](C(=O)N[C@@H](CCC(N)=O)C(=O)N[C@H](C(=O)N[C@@H](CC(C)C)C(=O)N[C@@H](CCC(=O)O)C(=O)N[C@@H](CCC(N)=O)C(=O)N[C@H](C(N)=O)C(C)C)[C@@H](C)CC)C(C)C)[C@@H](C)CC)[C@@H](C)CC)C(C)C)C(C)C
B3 displayed an EC50 [nM] (cAMP) in experiment [1] of 0.15 nM.

B4: SEQ ID NO 199 (peptide)
peptide: Ac-IVLSLD[dV]PIKLK([γGlu-C18 diacid])KILLEQEKQKKQREQAETN[Thp′]QILAQV-NH2
SMILES: CC[C@H](C)[C@H](NC(C)=O)C(=O)N[C@H](C(=O)N[C@@H](CC(C)C)C(=O)N[C@@H](CO)C(=O)N[C@@H](CC(C)C)C(=O)N[C@@H](CC(=O)O)C(=O)N[C@@H](C(=O)N1CCC[C@H]1C(=O)N[C@H](C(=O)N[C@@H](CCCCN)C(=O)N[C@@H](CC(C)C)C(=O)N[C@@H](CCCCNC(=O)CC[C@H](NC(=O)CCCCCCCCCCCCCCCCC(=O)O)C(=O)O)C(=O)N[C@@H](CCCCN)C(=O)N[C@H](C(=O)N[C@@H](CC(C)C)C(=O)N[C@@H](CC(C)C)C(=O)N[C@@H](CCC(=O)O)C(=O)N[C@@H](CCC(N)=O)C(=O)N[C@@H](CCC(=O)O)C(=O)N[C@@H](CCCCN)C(=O)N[C@@H](CCC(N)=O)C(=O)N[C@@H](CCCCN)C(=O)N[C@@H](CCCCN)C(=O)N[C@@H](CCC(N)=O)C(=O)N[C@@H](CCCNC(=N)N)C(=O)N[C@@H](CCC(=O)O)C(=O)N[C@@H](CCC(N)=O)C(=O)N[C@@H](C)C(=O)N[C@@H](CCC(=O)O)C(=O)N[C@H](C(=O)N[C@@H](CC(N)=O)C(=O)NC1(CC(=O)N[C@@H](CCC(N)=O)C(=O)N[C@H](C(=O)N[C@@H](CC(C)C)C(=O)N[C@@H](C)C(=O)N[C@@H](CCC(N)=O)C(=O)N[C@H](C(N)=O)C(C)C)[C@@H](C)CC)CCOCC1)[C@@H](C)O)[C@@H](C)CC)[C@@H](C)CC)C(C)C)C(C)C
Take B4: in the experiment with CRF1R receptor, the “Emax (% I)” value amounted to 11%. Ac-IVLSLD[dV]PIKLK([γGlu-C18 diacid])KILLEQEKQKKQREQAETN[Thp″]QILAQV-NH2 (not fully specified; reading uncertain): the EC50 [nM] (cAMP) in experiment [1] came out at 0.16 nM.

B5: SEQ ID NO 34 (peptide)
peptide: VLSLD[dV]PIKLK([γGlu-C16 diacid])KILLEQEKQKKQREQAETNKQILAQV-NH2
modifications: N-terminus assumed
SMILES: CC[C@H](C)[C@H](NC(=O)[C@H](CCC(N)=O)NC(=O)[C@H](CCCCN)NC(=O)[C@H](CC(N)=O)NC(=O)[C@@H](NC(=O)[C@H](CCC(=O)O)NC(=O)[C@H](C)NC(=O)[C@H](CCC(N)=O)NC(=O)[C@H](CCC(=O)O)NC(=O)[C@H](CCCNC(=N)N)NC(=O)[C@H](CCC(N)=O)NC(=O)[C@H](CCCCN)NC(=O)[C@H](CCCCN)NC(=O)[C@H](CCC(N)=O)NC(=O)[C@H](CCCCN)NC(=O)[C@H](CCC(=O)O)NC(=O)[C@H](CCC(N)=O)NC(=O)[C@H](CCC(=O)O)NC(=O)[C@H](CC(C)C)NC(=O)[C@H](CC(C)C)NC(=O)[C@@H](NC(=O)[C@H](CCCCN)NC(=O)[C@H](CCCCNC(=O)CC[C@H](NC(=O)CCCCCCCCCCCCCCC(=O)O)C(=O)O)NC(=O)[C@H](CC(C)C)NC(=O)[C@H](CCCCN)NC(=O)[C@@H](NC(=O)[C@@H]1CCCN1C(=O)[C@H](NC(=O)[C@H](CC(=O)O)NC(=O)[C@H](CC(C)C)NC(=O)[C@H](CO)NC(=O)[C@H](CC(C)C)NC(=O)[C@@H](N)C(C)C)C(C)C)[C@@H](C)CC)[C@@H](C)CC)[C@@H](C)O)C(=O)N[C@@H](CC(C)C)C(=O)N[C@@H](C)C(=O)N[C@@H](CCC(N)=O)C(=O)N[C@H](C(N)=O)C(C)C
On to B5, for which the “Emax (% I)” value with CRF1R receptor stood at 0%.

B6: SEQ ID NO 14 (peptide)
peptide: IVLSLD[dV]PIKLK([γGlu-C16 diacid])QILLKQERQKKQREQAEKNTQILEQV-NH2
modifications: N-terminus assumed
SMILES: CC[C@H](C)[C@H](N)C(=O)N[C@H](C(=O)N[C@@H](CC(C)C)C(=O)N[C@@H](CO)C(=O)N[C@@H](CC(C)C)C(=O)N[C@@H](CC(=O)O)C(=O)N[C@@H](C(=O)N1CCC[C@H]1C(=O)N[C@H](C(=O)N[C@@H](CCCCN)C(=O)N[C@@H](CC(C)C)C(=O)N[C@@H](CCCCNC(=O)CC[C@H](NC(=O)CCCCCCCCCCCCCCC(=O)O)C(=O)O)C(=O)N[C@@H](CCC(N)=O)C(=O)N[C@H](C(=O)N[C@@H](CC(C)C)C(=O)N[C@@H](CC(C)C)C(=O)N[C@@H](CCCCN)C(=O)N[C@@H](CCC(N)=O)C(=O)N[C@@H](CCC(=O)O)C(=O)N[C@@H](CCCNC(=N)N)C(=O)N[C@@H](CCC(N)=O)C(=O)N[C@@H](CCCCN)C(=O)N[C@@H](CCCCN)C(=O)N[C@@H](CCC(N)=O)C(=O)N[C@@H](CCCNC(=N)N)C(=O)N[C@@H](CCC(=O)O)C(=O)N[C@@H](CCC(N)=O)C(=O)N[C@@H](C)C(=O)N[C@@H](CCC(=O)O)C(=O)N[C@@H](CCCCN)C(=O)N[C@@H](CC(N)=O)C(=O)N[C@H](C(=O)N[C@@H](CCC(N)=O)C(=O)N[C@H](C(=O)N[C@@H](CC(C)C)C(=O)N[C@@H](CCC(=O)O)C(=O)N[C@@H](CCC(N)=O)C(=O)N[C@H](C(N)=O)C(C)C)[C@@H](C)CC)[C@@H](C)O)[C@@H](C)CC)[C@@H](C)CC)C(C)C)C(C)C
For B6, in the experiment with CRF1R receptor, the 50% effective concentration (EC50) was above 250000 pM and the “Emax (% I)” value was 24%.

As a reminder, the EC50 is the midpoint of the concentration-response curve. Low readings indicate greater potency, high ones weaker potency.
